From the supplement of paper PMC9732359
± gives the uncertainty stated by the source.

Test: protein stability index of a GFP-peptide fusion (yeast GPS) (PSI 1-4); higher = more stable; sorted into four equal gates, so the index is relative within each strain
How it was run: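 Tiled yeast protein peptides of 17 residues were each joined downstream of GFP, on plasmids that also express Cherry. The pooled library was maintained in yeast, and mid-log cultures in leucine-free medium were sorted into four equal gates on the GFP/Cherry ratio. Plasmids from every gate were amplified by PCR and sequenced on Illumina, with barcodes linking reads to strains. The protein stability index of a peptide is its gate-number-weighted read frequency summed over the gates.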

Sequence | protein stability index (doa10∆) | protein stability index (pdr5∆) | protein stability index (san1∆) | protein stability index (ubr1∆)
GLYKMMEERDGAKFENI [AAR2] | 1.49 ± 0.19 | 1.87 ± 0.12 | 1.68 ± 0.2 | 1.74 ± 0.056
GMIVISMENYHLLIKII [SRB8] | 1.96 ± 0.043 | 2.04 ± 0.044 | 2.71 ± 0.048 | 2.66 ± 0.045
GMTKSNIYNFSPSERIE [BRR2] | 3.18 ± 0.082 | 3.38 ± 0.082 | 3.01 ± 0.19 | 2.96 ± 0.059
GMTPCTVSPDFVAATTN [FAS1] | 1.83 ± 0.076 | 1.98 ± 0.054 | 1.86 ± 0.12 | 1.99 ± 0.07
GNDAKPAKVEDVQKSSD [YLR335W/NUP2] | 3.3 ± 0.064 | 3.2 ± 0.058 | 3.17 ± 0.052 | 3.13 ± 0.051
GNEVSSLYPPPPPYVKF [MED7] | 3.17 ± 0.087 | 3.08 ± 0.065 | 2.74 ± 0.079 | 3.13 ± 0.049
GNGITNTTTRVIPQVEV [SNF5] | 3.02 ± 0.15 | 2.58 ± 0.095 | 1.98 ± 0.21 | 2.49 ± 0.1
GNIISSDKTIVPTSIQT [SIN4] | 2.42 ± 0.061 | 2.61 ± 0.054 | 2.1 ± 0.076 | 2.77 ± 0.051
GNIKDLPENIILTSLMR [CSN9] | 2.69 ± 0.1 | 2.93 ± 0.075 | 2.43 ± 0.14 | 3.03 ± 0.1
GNLSGKRVDFSGRTVIS [RPO31] | 3 ± 0.073 | 3.01 ± 0.081 | 3.36 ± 0.073 | 3.17 ± 0.089
GNNNNNNSGNDNNNTTN [MED2] | 3.06 ± 0.056 | 3.05 ± 0.058 | 3.08 ± 0.045 | 2.93 ± 0.078
GNNVQENELVITSIPKP [RMP1] | 3.42 ± 0.14 | 3.4 ± 0.11 | 3.37 ± 0.065 | 3.15 ± 0.064
GNPGRIRVLFKENGQLI [SEC65] | 2.38 ± 0.055 | 2.24 ± 0.072 | 2.33 ± 0.11 | 2.44 ± 0.059
GNQQQQLQQQPQMQCAL [YGL172W/NUP49] | 2.79 ± 0.17 | 2.66 ± 0.19 | 2.87 ± 0.1 | 
GNSGVVRATFRNNLPAK [RPL33A] | 2.88 ± 0.085 | 3.17 ± 0.12 | 3.19 ± 0.099 | 3.22 ± 0.067
GNYSHLMEKNRIRKLTG [REC8] | 1.58 ± 0.067 | 2.04 ± 0.061 | 2.56 ± 0.1 | 1.9 ± 0.062
GPKLRASDLKINELFKK [RPN8] | 1.98 ± 0.12 | 1.42 ± 0.11 | 1.1 ± 0.13 | 1.08 ± 0.13
GPNNFIWPAEDALRRGM [MED4] | 3.35 ± 0.13 | 3.15 ± 0.11 | 3.03 ± 0.079 | 3.27 ± 0.08
GQGEQVDDVLETISAIE [RPN1] | 3.4 ± 0.27 | 3.05 ± 0.18 | 2.69 ± 0.19 | 2.91 ± 0.19
GQKLLAIKYGYEDSGST [SRB4] | 2.83 ± 0.11 | 2.91 ± 0.098 | 2.53 ± 0.1 | 3.25 ± 0.11
